In paper PMC2761027:
Residue numbers refer to the chain shown, from its start. In names and notes the source's numbering stands.

How the values were obtained:
[1] = substrate: Nc1ncnc2c1ncn2[C@@H]1O[C@H](COP(=O)(O)OP(=O)(O)OP(=O)(O)O)[C@@H](O)[C@H]1O; experiment: purified protein; assay type: biochemical, Mycolicibacterium smegmatis; settings: salmon sperm DNA, 5 mM MgCl2, pH 8.0, 37 °C, labelled compound
[2] = substrate: O=c1ccn([C@@H]2O[C@H](COP(=O)(O)OP(=O)(O)OP(=O)(O)O)[C@@H](O)[C@H]2O)c(=O)[nH]1; experiment: labelled UDP formation from labelled UTP, TLC, Michaelis-Menten fit; assay type: biochemical, Mycolicibacterium smegmatis; settings: salmon sperm DNA, 5 mM MgCl2, pH 8.0, 37 °C, labelled compound

B1: UvrD1 (Mycolicibacterium smegmatis MC2 155) (protein)
chain: MTSPSATPFAAETDQLLDGLNPQQRQAVLHEGSPLLIVAGAGSGKTAVLTRRIAYLLAEREVGVGQVLAITFTNKAAAEMRERVVQLVGPRAKAMWVSTFHSTCVRILRNQASLLPGLNSNFSIYDSDDSRRLLMMIGKDLGLDTKRYSPRLLANGISNLKNELIGPEQAAAEASEASDEMATVIAQVYGEYQRRLRAANALDFDDLIGETVAVLQAFPQIAQYYRRRFRHILVDEYQDTNHAQYVLVRELVGHHLEDHDGVPPSELCVVGDADQSIYAFRGATIRNIEDFERDFPDATTILLEQNYRSTQTILNAANAVIARNTGRREKRLWTDAGQGELIVGYVADNEHDEARFVADEIDALTDRHGYNYNDIAVFYRTNNSSRALEEVFIRAGIPYKVVGGVRFYERREIRDIVAYLRVLDNPGDSVSMRRILNTPRRGIGDRAEACVAVYAENTGVSFNEALQAAAEGRVPMLNTRSEKCIASFVQMLDDLRGKLDEELGDLVEAVLERTGYRRELEASSDPQDLARLDNLNELVSVAHEFSIDLANAQALAEESDEPVDEDIPDTGVLAQFLERVSLVADADDIPEEGSGVVTMMTLHTAKGLEFPAVFVTGWEDGMFPHMRALGDPNELSEERRLAYVGITRARQRLYLSRAKVRSSWGQPMLNPESRFLREIPQELIDWRRIEAPTPAYAAPGRMSSSGGGGIGFGSPRPSPNRPGGGRNKPLMVLQPGDRVTHDKYGLGRVEEVAGTGESAMSLIDFGSAGRVKLMHNHAPLQKL
**Q.** With B1 as the protein, how does the Km [1] read?
**A.** The Km was 260 ± 40 µM.

**Q.** What about the kcat [1] of the same protein?
**A.** Its kcat is 265 ± 22 s⁻¹.

B2: UvrD1 (Mycolicibacterium smegmatis MC2 155; Q24A) (protein)
chain: B1 chain with Q24A
**Q.** With B2 as the protein, how does the Km [2] read?
**A.** Its Km is 1210 ± 130 µM.

**Q.** And the kcat [2]?
**A.** The kcat was 86 ± 5 s⁻¹.

**Q.** What about the Km [1] of the same protein?
**A.** Its Km is 690 ± 50 µM.

**Q.** What about the kcat [1] of the same protein?
**A.** The kcat was 95 ± 3 s⁻¹.
